Experimental data reported in patent US6919434.

Target: the molecule itself
Test: SDS-PAGE under reducing and non-reducing conditions (60 kD against 120 kD)
Protocol: The two protein peaks with OCIF activity (peaks 6 and 7) were subjected to SDS-polyacrylamide gel electrophoresis under reducing and non-reducing conditions. Briefly, 20 μL of each peak fraction was concentrated under vacuum and dissolved in 1.5 μL of 10 mM Tris-HCl, pH 8, 1 mM EDTA, 2.5% SDS, 0.01% bromophenol blue, and incubated at 37° C. overnight under non-reducing conditions or under reducing conditions (with 5% of 2-mercaptoethanol). Each 1.0 μL of sample was then analyzed by SDS-polyacrylamide gel electrophoresis with a gradient gel of 10–15% acrylamide (Pharmacia Co.) and an electrophoresis-device (Fast System, Pharmacia Co.). The following molecular weight marker proteins were used to calculate molecular weight: phosphorylase b (94 kD), bovine serum albumin (67 kD), ovalbumin (43 kD), carbonic anhydrase (30 kD), trypsin inhibitor ([…]), and lactalbumin (14.4 kD). After electrophoresis, protein bands were visualized by silver stain using Phast Silver Stain Kit.

B1: osteoclastogenesis inhibitory factor (OCIF) (other)
chain: ETFPPKYLHYDEETSHQLLCDKCPPGTYLKQHCTAKWKTVCAPCPDHYYTDSWHTSDECLYCSPVCKELQYVKQECNRTHNRVCECKEGRYLEIEFCLKHRSCPPGFGVVQAGTPERNTVCKRCPDGFFSNETSSKAPCRKHTNCSVFGLLLTQKGNATHDNICSGNSESTQKCGIDVTLCEEAFFRFAVPTKFTPNWLSVLVDNLPGTKVNAESVERIKRQHSSQEQTFQLLKLWKHQNKDQDIVKKIIQDIDLCENSVQRHIGHANLTFEQLRSLMESLPGKKVGAEDIEKTIKACKPSDQILKLLSLWRIKNGDQDTLKGLMHALKHSKTYHFPKTVTQSLKKTIRFLHSFTMYKLYQKLFLEMIGNQVQSVKISCL
notes: Secreted glycoprotein, present as a 60 kD monomer and a 120 kD homodimer under non-reducing conditions; Natural OCIF from IMR-90 medium coated the plates in the hybridoma ELISA; Recombinant OCIF was the standard in the polyclonal EIA; Unaltered OCIF in 293/EBNA conditioned medium was used in the western blot; also called nOCIF; natural OCIF
- binding result: binds
